How the values were obtained:
[1] = biological target: S. thermophile aldonolactonase 1 (Thermothelomyces thermophilus, UniProt E5LEX3); conditions: substrate specificity
Experimental: (§1) Aldonolactonase activity was measured as described by Hestrin (21). The reactions were carried out in triplicate in 96-well microtiter plates. Briefly, 100 μL of 100 mM freshly dissolved sugar lactone was immediately mixed with 100 μL of 10 nM aldonolactonase enzyme buffered in 100 mM sodium acetate pH 5.0 for 1 minute at 25° C. The reaction was quenched by adding 40 μL of alkaline hydroxylamine (2.0 M hydroxylamine hydrochloride, 1.5 M sodium hydroxide) for 1 minute. Twenty microliters of 4.0 M hydrochloric acid was then added to acidify the solution and stabilize the sugar hydroxamate. Color was developed by adding 20 μL of 0.5 M ferric chloride (FeCl3) and the absorbance at 540 nm was measured. For all experiments, control measurements were made on control samples where no enzyme was added. The background hydrolysis was subtracted from the total hydrolysis in the presence of enzyme.

[2] = cited from earlier work
[3] = tested on: S. thermophile Aldonolactonase 2 (Spoth1189286); assay: Standard gluconolactonase assay with recombinant S. thermophile aldonolactonase 2; format: biochemical, Sporotrichum thermophile; conditions: unpurified concentrate, expressed in N. crassa
Experimental: as §1, with “Lactonase activity on gluconolactone was confirmed using the standard gluconolactonase assay (as described in other sections). The protein was not further purified because the affinity purification tag was removed by endogenous proteases in N. crassa. Aldonolactonase” for “Aldonolactonase”, “Hestrin” left out, “Color was developed by adding 20 μL of 0.5 M ferric chloride (FeCl3) and the absorbance at 540 nm was measured.” left out, “enzyme. This typically amounted to less than 10% of the total lactone.” for “enzyme.”

[4] = Stability of aldonolactonase activity; format: physicochemical
Source text: Sporotrichum thermophile is a thermophilic fungus isolated from soil and self-heating compost (3). […] During development of the present disclosure, an enzyme involved in the process of cellulose degradation was isolated from S. thermophile. As disclosed herein, an enzyme containing extracellular aldonolactonase activity was purified, identified, and characterized from the thermophilic ascomycete S. thermophile. The S. thermophile aldonolactonase hydrolyzes hexose δ-lactones over a broad range of pH values. […] (the growth condition for production of the enzyme). The expression profile and kinetic parameters of the S. thermophile aldonolactonase were determined on different substrates. The results disclosed herein provide insight into how S. thermophile utilizes aldonolactonase in nutrient acquisition, especially from hexose δ-lactones and how this enzyme can be utilized for biofuel production.
After 48 hours of growth on complex media containing cellulose, S. thermophile mycelia and residual cellulose were removed from the culture by filtering over 0.2 micron polyethersulfone (PES) filters. The filtered culture broth was then concentrated and buffer exchanged using tangential flow filtration with a 10 kDa molecular weight cut-off (MWCO) PES membrane (Millipore, Billerica, Mass.) into 25 mM 4-(2-hydroxyethyl)-1-piperazineethanesulfonic acid (HEPES) buffer, pH 7.4. […]

[5] = Aldonolactonase activity of enzyme preparations on glucono-δ-lactone; format: biochemical; conditions: glucono-δ-lactone as substrate, 25° C., pH 5.0
Experimental: as §1, with “enzyme. This typically amounted to less than 10% of the total lactone.” for “enzyme.”

[6] = pH profile of S. thermophile aldonolactonase 1; format: biochemical; conditions: from pH 3.0 to pH 8.0; 10 nM enzyme, 50 mM glucono-δ-lactone, room temperature
Experimental: FIG. 9 depicts the pH profile of S. thermophile aldonolactonase 1. Reactions were conducted at room temperature for 1 minute with 10 nM aldonolactonase, 50 mM glucono-δ-lactone, and 100 mM buffer. Buffers used included sodium citrate, pH 3.0; sodium acetate, pH 4.0; sodium acetate, pH 5.0; sodium succinate, pH 6.0; HEPES, pH 7.0; and Tris, pH 8.0. Error bars represent the standard deviation of three replicate experiments.

[7] = substrate: O=C1O[C@H](CO)[C@@H](O[C@@H]2O[C@H](CO)[C@@H](O)[C@H](O)[C@H]2O)[C@H](O)[C@H]1O; assay: purified protein, by the assay type; conditions: other: steady-state kinetic constants; substrate of S. thermophile aldonolactonase 1; pH 5.0; 25.0 °C
Experimental: (§2) Aldonolactonase activity was measured as described by Hestrin (21). The reactions were carried out in triplicate in 96-well microtiter plates. Briefly, 100 μL of 100 mM freshly dissolved sugar lactone was immediately mixed with 100 μL of 10 nM aldonolactonase enzyme buffered in 100 mM sodium acetate pH 5.0 for 1 minute at 25° C. The reaction was quenched by adding 40 μL of alkaline hydroxylamine (2.0 M hydroxylamine hydrochloride, 1.5 M sodium hydroxide) for 1 minute. Twenty microliters of 4.0 M hydrochloric acid was then added to acidify the solution and stabilize the sugar hydroxamate. Color was developed by adding 20 μL of 0.5 M ferric chloride (FeCl3) and the absorbance at 540 nm was measured. For all experiments, control measurements were made on control samples where no enzyme was added. The background hydrolysis was subtracted from the total hydrolysis in the presence of enzyme. This typically amounted to less than 10% of the total lactone.

[8] = substrate: O=C1O[C@H](CO)[C@@H](O[C@@H]2O[C@H](CO)[C@H](O)[C@H](O)[C@H]2O)[C@H](O)[C@H]1O; assay: purified protein, by the assay type; conditions: other: steady-state kinetic constants; substrate of S. thermophile aldonolactonase 1; pH 5.0; 25.0 °C
Experimental: as §2

[9] = substrate: O=C1O[C@H](CO)[C@@H](O)[C@H](O)[C@H]1O; assay: purified protein, by the assay type
[10] = other: steady-state kinetic constants, substrate of S. thermophile aldonolactonase 1, pH 5.0, 25.0 °C

Which results are given for O=C1O[C@H](CO)[C@@H](O)[C@H](O)[C@H]1O [D-Glucono-δ-lactone]?
hydrolysis by S. thermophile aldonolactonase 1 [1]: completely hydrolyze; equilibrium constant between glucono-δ-lactone and gluconic acid ([2]; favoring gluconic acid): 7.7; half-life ([2]; in water at room temperature and pH 5.0): approximately 1 hour; lactonase activity on gluconolactone [3]: confirmed

With O=C1O[C@H](CO)[C@@H](O)[C@@H]1O [arabinolactone] as the molecule, how does the “hydrolysis by S. thermophile aldonolactonase 1” value (“hydrolysis” for short) [1] read?
Its value is “not hydrolyzed”.

With O=C1O[C@H](CO)[C@H](O)[C@H]1O [Xylonolactone] as the molecule, how does the “hydrolysis” value [1] read?
The value was “not hydrolyzed”.

With O=C1O[C@H](CO)[C@@H](O[C@@H]2O[C@H](CO)[C@H](O)[C@H](O)[C@H]2O)[C@H](O)[C@H]1O [D-Lactono-δ-lactone] as the molecule, how does the “hydrolysis” value [1] read?
Its value is “completely hydrolyze”.

For O=C1O[C@H](CO)[C@@H](O[C@@H]2O[C@H](CO)[C@@H](O)[C@H](O)[C@H]2O)[C@H](O)[C@H]1O [D-Cellobiono-δ-lactone], which “hydrolysis” value [1] is on record?
The value was “completely hydrolyze”.

B1: S. thermophile aldonolactonase 1: extracellular aldonolactonase purified from S. thermophile culture broth, encoded by Spoth11109678 (SEQ ID NO: 1) (protein)
chain: MRTSYGVAFALSAGFRLATAAPVCGGGSASDLLWVTTYPAGEGAQGKLLTLKLDGSKLVVAESDTCGPYPSWLTQAGDVLYCVDEAWGGDHGTLHSLKINDDHSFTNLSQHETVGGPVSTVIYGKDGLGLAVADYAGGGIDTFNIADPAAIKLIKSLVYPAPTDGLPDPQNSARPHEAILDPTGEFLVFPDLGADQIRVLKVDKETLEYVEKPSYTDFDRGTGPRHGAFFKSGDKTFFYLVGELSNLLQGFSVAYNDDDSLTFTRIHNSTTHGDDKPLPEDTAAAELWIAPGSNFLTLSSRFESSLEYTVANGTKVPSDPLITFSIDKETGALTHVQSAPAGGINPRHFSFNSDGTRVASALQSDGRVVVFERDPSTGKIGKATAEGDVEGMPNFATFKQ
modifications: Sporotrichum thermophile; extracellular aldonolactonase 1
With B1 as the molecule, how does the stability ([4]; 50° C. (growth condition for production of the enzyme)) read?
The stability was “stable for several days”.

What about the “storage stability of aldonolactonase activity” value ([4]; stored at −80° C.) of the same molecule?
The value was “stable for several months”.

And the “activity relative to that reported for lactonases isolated from other filamentous fungi” value [5]?
The value was “approximately 20 fold”.

And the change in activity [6]?
Its change in activity is 3 fold.

B2: S. thermophile aldonolactonase 1 (Thermothelomyces thermophilus) (protein)
chain: APVCGGGSASDLLWVTTYPAGEGAQGKLLTLKLDGSKLEVVAESDTCGPYPSWLTQAGDVLYCVDEAWGGDHGTLHSLKINDDHSFTNLSQHETVGGPVSTVIYGKDGLGLAVADYAGGGIDTFNIADPAAIKLIKSLVYPAPTDGLPDPQNSARPHEAILDPTGEFLVFPDLGADQIRVLKVDKETLEYVEKPSYTDFDRGTGPRHGAFFKSGDKTFFYLVGELSNLLQGFSVAYNDDDSLTFTRIHNSTTHGDDKPLPEDTAAAELWIAPGSNFLTLSSRFESSLEYTVANGTKVPSDPLITFSIDKETGALTHVQSAPAGGINPRHFSFNSDGTRVASALQSDGRVVVFERDPSTGKIGKATAEGDVEGMPNFATFKQ
Which Km [7] does the source give for B2 here?
The Km was 21.6 mM.

What about the kcat [7] of the same molecule?
Its kcat is 29100 s⁻¹.

What about the kcat/Km [7] of the same molecule?
Its kcat/Km is 1.35e+06 ± 120000 M⁻¹ s⁻¹.

And the Km [8]?
The Km was 5.9 mM.

What about the kcat [8] of the same molecule?
The kcat was 7400 s⁻¹.

What about the kcat/Km [8] of the same molecule?
Its kcat/Km is 1.25e+06 ± 520000 M⁻¹ s⁻¹.

And the kcat/Km ([9]; other: 25° C. and pH 5.0)?
The kcat/Km was 600000 M⁻¹ s⁻¹.

And the Km [9, 10]?
Its Km is 20.3 mM.

What about the kcat [9, 10] of the same molecule?
The kcat was 11700 s⁻¹.

And the kcat/Km [9, 10]?
Its kcat/Km is 580000 M⁻¹ s⁻¹.

Source: patent publication US8703452B2, “Extracellular aldonolactonase” (The Regents of the University of California, priority 2010, dated 2014)
